The record followed here is patent US20220324954A1.

For test [1], the target named is human VEGFA (human) (UniProt P15692). The test is described as follows: cell-based or functional assay.
Test [2] shares this target. The experiment in a line: blocking ELISA: VEGFR2 coated, biotinylated VEGFA with antibody dilutions (FIG. 6). (In general: In an ELISA, binding on a coated surface is turned into a signal by an enzyme label.)

Chain of human VEGFA (human) (P15692 other isoform, or with tags, fused parts or gaps limits assumed): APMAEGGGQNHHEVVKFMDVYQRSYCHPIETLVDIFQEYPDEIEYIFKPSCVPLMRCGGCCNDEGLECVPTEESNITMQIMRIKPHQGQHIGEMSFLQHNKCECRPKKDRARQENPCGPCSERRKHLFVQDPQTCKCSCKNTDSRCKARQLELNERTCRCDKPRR
Chain of Eylea (Aflibercept) (Fc fusion) (chain): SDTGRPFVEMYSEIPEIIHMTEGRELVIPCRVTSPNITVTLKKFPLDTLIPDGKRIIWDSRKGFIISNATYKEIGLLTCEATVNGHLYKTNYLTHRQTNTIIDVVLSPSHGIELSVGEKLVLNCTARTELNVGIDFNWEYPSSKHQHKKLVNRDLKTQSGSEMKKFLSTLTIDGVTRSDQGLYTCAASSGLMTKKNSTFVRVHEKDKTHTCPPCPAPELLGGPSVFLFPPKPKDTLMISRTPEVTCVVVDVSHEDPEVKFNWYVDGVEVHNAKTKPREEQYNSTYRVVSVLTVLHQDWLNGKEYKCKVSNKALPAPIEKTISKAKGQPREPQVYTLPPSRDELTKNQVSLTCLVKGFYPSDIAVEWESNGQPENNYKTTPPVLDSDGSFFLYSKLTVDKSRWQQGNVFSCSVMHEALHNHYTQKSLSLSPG
Chain of Conbercept (Fc fusion) (chain): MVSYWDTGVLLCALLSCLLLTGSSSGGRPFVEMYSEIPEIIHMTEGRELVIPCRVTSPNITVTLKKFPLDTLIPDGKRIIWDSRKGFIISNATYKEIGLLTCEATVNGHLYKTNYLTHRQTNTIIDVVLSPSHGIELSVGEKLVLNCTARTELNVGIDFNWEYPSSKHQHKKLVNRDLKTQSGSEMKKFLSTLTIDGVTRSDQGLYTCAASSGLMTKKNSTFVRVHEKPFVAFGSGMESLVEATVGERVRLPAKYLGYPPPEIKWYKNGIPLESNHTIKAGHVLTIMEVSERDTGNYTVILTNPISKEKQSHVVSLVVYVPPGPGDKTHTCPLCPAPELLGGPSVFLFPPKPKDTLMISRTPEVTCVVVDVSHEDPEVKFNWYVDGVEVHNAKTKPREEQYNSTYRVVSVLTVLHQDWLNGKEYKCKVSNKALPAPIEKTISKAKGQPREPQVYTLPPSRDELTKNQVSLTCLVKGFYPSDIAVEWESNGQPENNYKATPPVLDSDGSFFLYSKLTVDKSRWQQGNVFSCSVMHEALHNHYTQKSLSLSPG

Usually IC50 stands for the concentration that gives 50% inhibition. Low readings indicate inhibition by little substance, high ones a need for much substance. Regarding Conbercept (Fc fusion), the inhibitory effect on HUVEC cell proliferation, IC50 in test [1] was found to be 0.13 µg/mL. This substance had a concentration for half-maximal inhibition (IC50) in test [2] of 0.088 µg/mL.
Taken in the same sequence, the figures for Eylea (Aflibercept) (Fc fusion) were 0.066 µg/mL and 0.085 µg/mL.
